From US20160324958A1 (ALPHA O PEPTIDES, published 2016)

Legend:
[1] = target: Toll-like receptor 5 (TLR5) on TLR5/SEAPorter HEK 293 cells (IMGENEX, Cat. No. IML-105) (UniProt O60602); assay: cell-based or functional assay
[2] = target: Toll-like receptor 5 (TLR5) on TLR5/SEAPorter HEK 293 cells (IMGENEX, Cat. No. IML-105) (UniProt O60602 21-858); assay: cell-based or functional assay
Sequence of Toll-like receptor 5 (TLR5) on TLR5/SEAPorter HEK 293 cells (IMGENEX, Cat. No. IML-105) (UniProt O60602 21-858) (O60602 21-858 limits assumed): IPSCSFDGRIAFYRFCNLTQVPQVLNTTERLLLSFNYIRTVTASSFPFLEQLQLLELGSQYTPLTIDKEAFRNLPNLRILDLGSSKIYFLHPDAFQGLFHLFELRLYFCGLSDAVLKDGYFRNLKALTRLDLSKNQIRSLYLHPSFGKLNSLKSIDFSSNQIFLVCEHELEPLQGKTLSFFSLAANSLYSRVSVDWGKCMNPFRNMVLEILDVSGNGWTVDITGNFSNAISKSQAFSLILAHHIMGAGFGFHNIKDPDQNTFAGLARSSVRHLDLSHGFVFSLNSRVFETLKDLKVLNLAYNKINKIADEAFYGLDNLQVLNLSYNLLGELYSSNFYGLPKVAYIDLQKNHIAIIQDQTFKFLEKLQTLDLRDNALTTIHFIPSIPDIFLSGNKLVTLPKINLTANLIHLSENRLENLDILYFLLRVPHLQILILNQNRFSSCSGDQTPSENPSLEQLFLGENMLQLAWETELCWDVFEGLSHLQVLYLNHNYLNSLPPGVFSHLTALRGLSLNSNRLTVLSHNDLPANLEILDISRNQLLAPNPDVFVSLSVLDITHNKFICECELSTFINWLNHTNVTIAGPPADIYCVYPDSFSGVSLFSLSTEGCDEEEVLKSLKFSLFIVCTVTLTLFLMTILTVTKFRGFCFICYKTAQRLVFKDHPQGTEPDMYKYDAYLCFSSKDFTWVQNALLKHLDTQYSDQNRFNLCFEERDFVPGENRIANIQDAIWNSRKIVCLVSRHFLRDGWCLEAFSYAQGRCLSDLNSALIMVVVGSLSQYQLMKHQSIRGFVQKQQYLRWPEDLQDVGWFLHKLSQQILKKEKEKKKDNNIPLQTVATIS

Sequence of Toll-like receptor 5 (TLR5) on TLR5/SEAPorter HEK 293 cells (IMGENEX, Cat. No. IML-105) (UniProt O60602) (O60602 21-858 limits assumed): as above

flagellin from Salmonella typhimurium (IMGENEX flagellin, Cat. No. IMG-2205) (from UniProt P06179 2-495) (ligand)
EC50 of TLR5 agonist activity (SEAP reporter, TLR5/SEAPorter HEK 293 cells) [1]: 0.29 ng/mL

B1: T81c-WRW-8RRVRA-D0-D1 : T81c-WRW-8RRVRA-T1BT* co-assembled nanoparticle (12:48) (other)
chain 1: MGHHHHHHASWRWDGGLVPRGSWQTWNARWDQWSNDWNAWRSDWQAWRDDWARWRALWMGGRLLLRLEELERRLEELERRLEELERFVAAWTLRVRALERRLEELERRIEEIARGMAQVINTNSLSLLTQNNLNKSQSALGTAIERLSSGLRINSAKDDAAGQAIANRFTANIKGLTQASRNANDGISIAQTTEGALNEINNNLQRVRELAVQSANSTNSQSDLDSIQAEITQRLNEIDRVSGQTQFNGVKVLAQDNTLTIQVGANDGETIDIDLKQINSQTLGLDSLNVHGAPVDPASPWTENPLQKIDAALAQVDALRSDLGAVQNRFNSAITNLGNTVNNLSEARSRIEDSDYATEVSNMSRAQILQQAGTSVLAQANQVPQNVLSLLR
chain 2: MGHHHHHHASEYLNKIQNSLSTEWSPSSVTGSWQTWNARWDQWSNDWNAWRSDWQAWRDDWARWRALWMGGRLLLRLEELERRLEELERRLEELERFVAAWTLRVRALERRLEELERRIEEIARGSGDPNANPNVDPNANPNVNANPNANPNANP
EC50 of TLR5 agonist activity (SEAP reporter, TLR5/SEAPorter HEK 293 cells) [2]: 0.0901 ng/mL
TLR5 activation relative to native flagellin [2]: ~3 fold

B2: PD52-2i88-PANDORA-D2-D1-ori : PD52-2i88-PANDORA-Noro co-assembled nanoparticle (5:55) (other)
chain 1: MGHHHHHHASGSWEKWNAKWDEWKNDWNDWRRDWQAWVDDWAYWTLTWKYGELYSKLAELERRNEELERRLEELARFVAALSMRLAELERRNEELARGSGSSARLSDLEANNAVRGESKITVNGAEYTANATGDRITLAGRTMFIDRTASGVSTLINEDAAAARRSTANPLASIDSALSRVDAVRSSLGAIQNRFDSAIGSKNANDGISIAQTTEGALNEINNNLQRVRELSVQATNGTNSDSDLRSIQDEIQQRLEEIDRVSNQTQFNGVKVLSQDNQMKIQVGAKDGETITIDLQKIDVKSLGLDGFNVNGPREATVGDLRSSFRNVTGYDTYAAGADRYRVDINSGAV
chain 2: MGHHHHHHASGSWEKWNAKWDEWKNDWNDWRRDWQAWVDDWAYWTLTWKYGELYSKLAELERRNEELERRLEELARFVAALSMRLAELERRNEELARGSGSTVEQKTRPFTLPNLPLSSLSNSRAPLPISSMGISPDNVQSVQFQNGRCTLDGRLVGTTPVSLSHVAKIRGTSNGTVINLTELDGTPFHPFEGPAPIGFPDLGGCDWHINMTQFGHSSQTQYDVDTTPDTFVPHLGSIQANGIGSGNYVGVLSWISPPSHPSGSQVDLWKIPNYGSSITEATHLAPSVYPPGFGEVLVFFMSKMPGPGAYNLPCLLPQEYISHLASEQAPTVGEAALLHYVDPDTGRNLGEFKAYPDGFLTCVPNGASSGPQQLPINGVFVFVSWVSRFYQLKPVGTAS
EC50 of TLR5 agonist activity (SEAP reporter, TLR5/SEAPorter HEK 293 cells) [2]: 17.7 ng/mL

B3: LONG-D2-D1-ori self-assembling protein nanoparticle (other)
chain: MGHHHHHHASWRWDGGLVPRGSWQTWNARWDQWSNDWNAWRSDWQAWRDDWARWRALWMGGRLLLRLEELERRLEELERRLEELERFVAAWTLRVRALERRLEELERRIEEIARGSGSSARLSDLEANNAVKGESKITVNGAEYTANATGDKITLAGKTMFIDKTASGVSTLINEDAAAAKKSTANPLASIDSALSKVDAVRSSLGAIQNRFDSAIGSRNANDGISIAQTTEGALNEINNNLQRVRELSVQATNGTNSDSDLKSIQDEIQQRLEEIDRVSNQTQFNGVKVLSQDNQMKIQVGANDGETITIDLQKIDVKSLGLDGFNVNGPKEATVGDLKSSFKNVTGYDTYAAGADKYRVDINSGAV
EC50 of TLR5 agonist activity (SEAP reporter, TLR5/SEAPorter HEK 293 cells) [2]: 12.6 ng/mL
